Assay results reported in the supplement of paper PMC10065799, “High-throughput profiling of sequence recognition by tyrosine kinases and SH2 domains using bacterial peptide display” (eLife, 2023).

Key:
AncSZ = experiment: phosphorylation enrichment, bacterial display (enrichment ratio); higher = better substrate or ligand; peptides without Tyr show the background
EPHB1 = EPHB1 (UniProt P54762); experiment: as above
EPHB2 = EPHB2 (UniProt P29323); experiment: as above
FGFR1 = FGFR1 (UniProt P11362); experiment: as above
FGFR3 = FGFR3 (UniProt P22607); experiment: as above
FGFR3, sequence (P22607 whole entry, looked up): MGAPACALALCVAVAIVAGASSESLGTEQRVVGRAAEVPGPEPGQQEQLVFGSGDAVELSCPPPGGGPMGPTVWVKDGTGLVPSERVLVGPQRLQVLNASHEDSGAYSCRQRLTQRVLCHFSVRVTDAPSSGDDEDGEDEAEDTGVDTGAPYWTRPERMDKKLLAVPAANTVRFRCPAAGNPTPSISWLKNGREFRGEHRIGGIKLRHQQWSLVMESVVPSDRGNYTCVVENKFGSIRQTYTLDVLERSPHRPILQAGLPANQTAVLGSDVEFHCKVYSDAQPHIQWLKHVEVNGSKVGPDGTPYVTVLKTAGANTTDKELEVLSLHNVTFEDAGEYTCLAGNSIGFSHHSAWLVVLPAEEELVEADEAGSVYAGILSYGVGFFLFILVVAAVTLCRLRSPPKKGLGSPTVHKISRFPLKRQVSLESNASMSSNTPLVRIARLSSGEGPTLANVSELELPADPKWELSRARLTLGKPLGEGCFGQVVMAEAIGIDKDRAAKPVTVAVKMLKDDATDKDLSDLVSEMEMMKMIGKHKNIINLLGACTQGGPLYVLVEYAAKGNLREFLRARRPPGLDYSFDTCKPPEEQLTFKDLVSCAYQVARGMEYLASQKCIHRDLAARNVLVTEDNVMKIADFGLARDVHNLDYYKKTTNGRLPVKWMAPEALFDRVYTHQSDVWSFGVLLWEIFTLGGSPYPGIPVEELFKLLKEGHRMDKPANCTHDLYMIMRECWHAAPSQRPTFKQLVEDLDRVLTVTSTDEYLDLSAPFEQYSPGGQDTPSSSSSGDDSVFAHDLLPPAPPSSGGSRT

Fer (mouse) = experiment: as above
Fes = Fes (UniProt P07332); experiment: as above
Fyn = Fyn (UniProt P06241); experiment: as above
Fyn, sequence (P06241 whole entry, looked up): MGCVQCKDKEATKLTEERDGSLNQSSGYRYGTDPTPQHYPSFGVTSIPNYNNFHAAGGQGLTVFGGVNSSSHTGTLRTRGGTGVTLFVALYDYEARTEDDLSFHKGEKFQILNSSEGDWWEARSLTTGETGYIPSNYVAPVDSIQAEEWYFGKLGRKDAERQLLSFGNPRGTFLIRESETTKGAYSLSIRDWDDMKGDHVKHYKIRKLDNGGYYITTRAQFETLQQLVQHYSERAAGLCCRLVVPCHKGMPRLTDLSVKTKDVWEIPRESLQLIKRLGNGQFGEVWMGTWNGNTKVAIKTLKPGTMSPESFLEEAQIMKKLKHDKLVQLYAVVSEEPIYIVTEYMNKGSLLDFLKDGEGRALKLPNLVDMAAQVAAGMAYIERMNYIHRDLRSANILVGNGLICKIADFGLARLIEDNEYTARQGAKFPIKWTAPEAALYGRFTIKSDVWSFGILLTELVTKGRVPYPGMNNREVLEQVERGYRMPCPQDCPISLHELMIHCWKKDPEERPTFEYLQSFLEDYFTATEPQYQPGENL

Hck = Hck (UniProt P08631); experiment: as above
Hck, sequence (P08631 whole entry, looked up): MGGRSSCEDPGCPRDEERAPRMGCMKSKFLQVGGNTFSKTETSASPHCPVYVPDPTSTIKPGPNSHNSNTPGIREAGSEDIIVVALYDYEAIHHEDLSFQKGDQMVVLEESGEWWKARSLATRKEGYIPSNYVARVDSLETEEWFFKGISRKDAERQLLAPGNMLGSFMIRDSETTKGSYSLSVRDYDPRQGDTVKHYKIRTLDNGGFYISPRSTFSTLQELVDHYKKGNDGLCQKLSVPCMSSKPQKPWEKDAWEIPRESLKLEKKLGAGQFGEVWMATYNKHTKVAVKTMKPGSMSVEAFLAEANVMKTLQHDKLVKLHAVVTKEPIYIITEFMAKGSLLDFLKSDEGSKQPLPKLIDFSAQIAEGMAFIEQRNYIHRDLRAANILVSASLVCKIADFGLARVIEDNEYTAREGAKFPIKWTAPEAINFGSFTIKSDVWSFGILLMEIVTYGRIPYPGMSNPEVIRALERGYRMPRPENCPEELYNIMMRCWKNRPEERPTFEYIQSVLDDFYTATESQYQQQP

Jak2 = Jak2 (UniProt O60674); experiment: as above
Jak2, sequence (O60674 whole entry, looked up): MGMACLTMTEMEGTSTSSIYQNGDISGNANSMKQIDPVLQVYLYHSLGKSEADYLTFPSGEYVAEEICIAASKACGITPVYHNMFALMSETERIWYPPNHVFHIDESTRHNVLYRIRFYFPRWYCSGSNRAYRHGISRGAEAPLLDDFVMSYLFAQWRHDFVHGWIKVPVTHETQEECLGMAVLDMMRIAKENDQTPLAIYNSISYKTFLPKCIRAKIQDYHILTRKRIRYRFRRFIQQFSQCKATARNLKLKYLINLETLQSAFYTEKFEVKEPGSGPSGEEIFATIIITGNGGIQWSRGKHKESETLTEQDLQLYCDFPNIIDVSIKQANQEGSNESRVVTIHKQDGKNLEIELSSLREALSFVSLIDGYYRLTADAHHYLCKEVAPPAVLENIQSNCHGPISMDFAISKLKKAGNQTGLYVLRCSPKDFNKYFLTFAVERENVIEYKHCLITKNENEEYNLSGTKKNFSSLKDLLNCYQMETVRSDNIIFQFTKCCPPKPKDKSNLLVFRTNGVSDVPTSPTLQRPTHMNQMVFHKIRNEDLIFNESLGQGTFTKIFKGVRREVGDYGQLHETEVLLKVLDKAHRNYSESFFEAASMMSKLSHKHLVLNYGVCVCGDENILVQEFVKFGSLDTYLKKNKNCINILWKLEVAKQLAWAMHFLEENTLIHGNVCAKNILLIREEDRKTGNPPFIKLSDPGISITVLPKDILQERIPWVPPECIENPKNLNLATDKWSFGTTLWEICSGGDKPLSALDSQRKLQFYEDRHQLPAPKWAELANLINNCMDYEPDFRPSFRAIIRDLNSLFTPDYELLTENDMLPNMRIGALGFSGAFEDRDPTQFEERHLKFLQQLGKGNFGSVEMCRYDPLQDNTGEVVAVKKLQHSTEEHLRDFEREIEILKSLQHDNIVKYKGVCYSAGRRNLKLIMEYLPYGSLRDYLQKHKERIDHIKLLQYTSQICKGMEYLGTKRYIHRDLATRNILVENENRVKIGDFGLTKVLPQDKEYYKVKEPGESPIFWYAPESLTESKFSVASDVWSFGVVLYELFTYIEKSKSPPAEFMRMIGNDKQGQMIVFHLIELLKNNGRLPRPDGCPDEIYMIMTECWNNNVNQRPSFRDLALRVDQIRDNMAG

MERTK = MERTK (UniProt Q12866); experiment: as above
c-Abl (mouse) = experiment: as above
c-Src = experiment: as above
Grb2 SH2 = Grb2 SH2 (UniProt P62993); experiment: SH2 binding enrichment of the phosphorylated peptide, bacterial display (enrichment ratio); higher = better substrate or ligand; peptides without Tyr show the background
Grb2 SH2, sequence (P62993 whole entry, looked up): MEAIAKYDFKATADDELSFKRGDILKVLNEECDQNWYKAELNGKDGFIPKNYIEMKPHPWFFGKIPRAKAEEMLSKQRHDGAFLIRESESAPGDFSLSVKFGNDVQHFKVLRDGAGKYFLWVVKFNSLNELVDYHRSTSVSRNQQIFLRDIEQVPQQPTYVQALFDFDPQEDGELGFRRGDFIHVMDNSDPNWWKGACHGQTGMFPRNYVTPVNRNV

SHP2-C SH2 = experiment: as above
c-Src SH2 = experiment: as above
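Throughout, for SH2 binding enrichment of the phosphorylated peptide, bacterial display: peptide library displayed on the E. coli surface as eCPX fusions, selected cells deep-sequenced, score is each peptide's frequency after selection divided by its frequency in the input.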
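Throughout, for phosphorylation enrichment, bacterial display: 11-residue human phosphosite peptides and single-mutation variants displayed on the E. coli surface, counted by deep sequencing, each peptide's frequency after selection divided by its frequency in the unselected input library; frequency after pTyr selection over input frequency; kinase dosed for 20-30% of maximal phosphorylation in three min.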

EPHB2, sequence (P29323 whole entry, looked up): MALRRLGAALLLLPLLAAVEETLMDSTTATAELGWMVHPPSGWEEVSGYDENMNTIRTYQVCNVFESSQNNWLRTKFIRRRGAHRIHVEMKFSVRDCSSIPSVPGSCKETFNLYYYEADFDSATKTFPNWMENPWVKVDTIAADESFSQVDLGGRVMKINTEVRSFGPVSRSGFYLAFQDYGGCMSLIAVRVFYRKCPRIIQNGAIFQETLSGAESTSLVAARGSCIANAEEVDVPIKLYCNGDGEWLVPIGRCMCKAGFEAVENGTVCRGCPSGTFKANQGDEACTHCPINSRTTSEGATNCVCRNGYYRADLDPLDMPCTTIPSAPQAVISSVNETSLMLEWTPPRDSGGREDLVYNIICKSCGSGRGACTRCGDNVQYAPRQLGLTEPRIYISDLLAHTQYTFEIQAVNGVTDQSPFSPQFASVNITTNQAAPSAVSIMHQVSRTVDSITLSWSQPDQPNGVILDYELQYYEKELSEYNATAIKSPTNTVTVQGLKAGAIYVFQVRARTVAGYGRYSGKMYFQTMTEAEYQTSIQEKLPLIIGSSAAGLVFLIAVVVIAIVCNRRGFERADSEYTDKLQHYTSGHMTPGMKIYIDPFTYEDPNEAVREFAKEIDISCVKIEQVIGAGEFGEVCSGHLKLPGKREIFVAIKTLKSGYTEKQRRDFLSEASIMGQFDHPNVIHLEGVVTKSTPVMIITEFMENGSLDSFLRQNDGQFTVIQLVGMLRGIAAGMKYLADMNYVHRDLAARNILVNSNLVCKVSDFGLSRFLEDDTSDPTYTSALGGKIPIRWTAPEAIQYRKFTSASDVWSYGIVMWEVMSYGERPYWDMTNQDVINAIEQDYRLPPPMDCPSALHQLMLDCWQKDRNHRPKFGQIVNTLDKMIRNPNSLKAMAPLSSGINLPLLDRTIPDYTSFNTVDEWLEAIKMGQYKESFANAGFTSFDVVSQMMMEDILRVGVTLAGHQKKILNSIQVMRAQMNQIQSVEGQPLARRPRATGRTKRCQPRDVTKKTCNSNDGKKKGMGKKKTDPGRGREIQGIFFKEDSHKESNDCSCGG

| Sequence | phosphorylation enrichment (AncSZ) | phosphorylation enrichment (EPHB1) | phosphorylation enrichment (EPHB2) | phosphorylation enrichment (FGFR1) | phosphorylation enrichment (FGFR3) | phosphorylation enrichment (Fer (mouse)) | phosphorylation enrichment (Fes) | phosphorylation enrichment (Fyn) | phosphorylation enrichment (Hck) | phosphorylation enrichment (Jak2) | phosphorylation enrichment (MERTK) | phosphorylation enrichment (c-Abl (mouse)) | phosphorylation enrichment (c-Src) | SH2 binding enrichment (Grb2 SH2) | SH2 binding enrichment (SHP2-C SH2) | SH2 binding enrichment (c-Src SH2) |
| --- | --- | --- | --- | --- | --- | --- | --- | --- | --- | --- | --- | --- | --- | --- | --- | --- |
| IFETDYFRKGG [INSR_Y1189_YF] | 0.988 | 0.568 | 0.626 | 0.536 | 0.686 | 0.581 | 0.938 | 0.5 | 0.529 | 0.934 | 0.436 | 0.741 | 0.539 | 0.918 | 0.672 | 0.472 |
| SPPPAYTPMSG [ERBB4_Y1056] | 0.522 | 0.438 | 0.429 | 0.41 | 0.457 | 0.379 | 0.503 | 0.483 | 0.45 | 0.503 | 0.529 | 0.459 | 0.388 | 0.846 | 0.811 | 0.92 |
| YQRITYHNWRH [PDE6B_Y556_R552Q] | 0.59 | 0.386 | 0.483 | 0.626 | 0.618 | 0.461 | 0.619 | 0.446 | 0.579 | 0.561 | 0.482 | 0.485 | 0.486 | 1.62 | 1.68 | 2.5 |
| QEEPEYWDQET [HLA-A_Y83_G80E] | 2.08 | 1.08 | 0.793 | 0.897 | 1.43 | 0.902 | 1.95 | 0.943 | 0.699 | 2 | 0.384 | 0.907 | 0.823 | 0.798 | 0.476 | 0.491 |
| PKGIGYGQGAG [CSRP3_Y73] | 0.458 | 0.396 | 0.469 | 0.731 | 0.513 | 0.492 | 0.721 | 0.525 | 0.4 | 0.474 | 0.462 | 0.422 | 0.308 | 0.823 | 0.43 | 0.489 |
| PELINYHQHFS [BTK_Y361_N365Y_YF] | 0.508 | 0.723 | 0.44 | 0.591 | 0.799 | 0.366 | 0.869 | 0.547 | 0.513 | 0.869 | 0.401 | 0.711 | 0.38 | 0.895 | 0.934 | 0.557 |
| LFIGQYSGKKE [L1CAM_Y1229_S1224L] | 1.41 | 0.984 | 1.11 | 1.02 | 1.13 | 0.901 | 2.22 | 1.07 | 1.02 | 1.77 | 0.972 | 1.07 | 1.12 | 0.924 | 0.745 | 0.843 |
| FDEFRYRSVIK [CFTR_Y517_YF] | 0.768 | 0.39 | 0.472 | 0.466 | 0.484 | 0.409 | 0.804 | 0.41 | 0.498 | 0.607 | 0.463 | 0.544 | 0.46 | 0.812 | 0.527 | 0.444 |
| GQECEYPPTQD [METAP2_Y137] | 1.34 | 0.866 | 0.67 | 0.584 | 0.852 | 0.609 | 1.41 | 0.534 | 0.63 | 1.24 | 0.525 | 1.06 | 0.563 | 0.918 | 0.831 | 0.521 |
| PLLLSYYLIKW [NUP160_Y773] | 1.33 | 1.14 | 0.947 | 4.29 | 3.73 | 0.633 | 1.83 | 0.358 | 0.628 | 4.49 | 1.68 | 1.2 | 0.854 | 1.29 | 1.45 | 0.966 |
| LNWIFYKDQTG [RS1_Y166_YF] | 0.977 | 0.611 | 0.306 | 0.27 | 0.932 | 0.54 | 1.72 | 0.48 | 0.239 | 1.29 | 0.468 | 0.843 | 0.567 | 0.937 | 0.88 | 0.657 |
| TIQIMYGCDVG [HLA-A_Y123] | 1.37 | 0.647 | 0.664 | 0.476 | 0.817 | 0.597 | 1.43 | 0.438 | 0.581 | 1.64 | 0.439 | 1.18 | 0.633 | 0.857 | 0.75 | 0.654 |
| YRASYYRRGDR [LTK_Y677] | 0.653 | 0.446 | 0.535 | 0.511 | 0.431 | 0.496 | 0.485 | 0.534 | 0.494 | 0.436 | 0.603 | 0.693 | 0.598 | 0.704 | 0.609 | 0.411 |
| VYSTDCYRVGG [NTRK2_Y706_Y706C] | 1.07 | 2.13 | 1.01 | 0.787 | 0.769 | 0.824 | 1.16 | 2.56 | 1.38 | 0.972 | 7.43 | 0.808 | 2.23 | 0.903 | 0.538 | 0.601 |
| RVQKRYILDNV [RCN1_Y115_F117L] | 0.494 | 0.176 | 0.234 | 0.326 | 0.327 | 0.337 | 0.463 | 0.372 | 0.366 | 0.487 | 0.367 | 0.384 | 0.409 | 0.804 | 0.553 | 0.454 |
| ADKSVYLMGLN [MYH7_Y386_A385V] | 0.666 | 0.407 | 0.409 | 0.444 | 0.523 | 0.413 | 0.769 | 0.583 | 0.481 | 0.51 | 0.379 | 0.338 | 0.678 | 0.92 | 1.54 | 0.528 |
| PTFKHYANSTQ [SLC12A3_Y70_E68K_YF] | 0.651 | 0.603 | 0.506 | 0.574 | 0.599 | 0.509 | 0.774 | 0.482 | 0.507 | 0.455 | 0.375 | 0.591 | 0.365 | 0.671 | 0.499 | 0.335 |
